# Test results reported in publication doi:10.1101/2021.07.02.450967 (bioRxiv, 2021).
# Where “and” joins values, the source holds several entries; their conditions need not be identical. Equal values may be shown once.
# Biological target: T1, SOX7, made in the cell-free protein production system (UniProt Q9BT81 1-388)
# T1 sequence: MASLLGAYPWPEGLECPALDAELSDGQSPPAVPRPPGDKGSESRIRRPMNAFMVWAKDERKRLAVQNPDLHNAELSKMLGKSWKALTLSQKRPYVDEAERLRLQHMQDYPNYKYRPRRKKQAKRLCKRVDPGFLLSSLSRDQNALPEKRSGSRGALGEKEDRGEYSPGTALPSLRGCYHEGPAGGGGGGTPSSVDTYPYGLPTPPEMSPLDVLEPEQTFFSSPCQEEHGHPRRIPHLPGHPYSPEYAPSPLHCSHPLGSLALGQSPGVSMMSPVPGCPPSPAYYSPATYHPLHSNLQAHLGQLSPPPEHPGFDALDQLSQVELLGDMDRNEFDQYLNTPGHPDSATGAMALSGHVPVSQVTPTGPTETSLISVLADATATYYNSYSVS
# Experiment: single molecule two-colour coincidence spectroscopy
binder,measurement,value
"HEY1, made in the cell-free protein production system (natural protein) MKRAHPEYSSSDSELDETIEVEKESADENGNLSSALGSMSPTTSSQILARKRRRGIIEKRRRDRINNSLSELRRLVPSAFEKQGSAKLEKAEILQMTVDHLKMLHTAGGKGYFDAHALAMDYRSLGFRECLAEVARYLSIIEGLDASDPLRVRLVSHLNNYASQREAASGAHAGLGHIPWGTVFGHHPHIAHPLLLPQNGHGNAGTTASPTEPHHQGRLGSAHPEAPALRAPPSGSLGPVLPVVTSASKLSPPLLSSVASLSAFPFSFGSFHLLSPNALSPSAPTQAANLGKPYRPWGTEIGAF",stoichiometry N,"1 HEY1 per SOX7 (1:1) and 2 HEY1 per SOX7 (1:2, order as printed)"
